In US20200323888A1, “INHIBITORS” (VESTLANDETS INNOVASJONSSELSKAP AS, priority 2017, published 2020):
Primed or numbered codes have the meaning given here. Ac′ = acetamide linker; CoA = coenzyme A

What follows are compounds tested against T1, Naa80 (Homo sapiens, UniProt Q93015) (assay: Nt-acetylation inhibitor assay for Naa80). Conditions: Naa80.
T1 construct: The PCR product containing the CDS was inserted into the TOPO TA vector; made in house; host or cells: E. coli BL21 Star (DE3)
T1 sequence (Q93015 1-308 isoform Q93015-2): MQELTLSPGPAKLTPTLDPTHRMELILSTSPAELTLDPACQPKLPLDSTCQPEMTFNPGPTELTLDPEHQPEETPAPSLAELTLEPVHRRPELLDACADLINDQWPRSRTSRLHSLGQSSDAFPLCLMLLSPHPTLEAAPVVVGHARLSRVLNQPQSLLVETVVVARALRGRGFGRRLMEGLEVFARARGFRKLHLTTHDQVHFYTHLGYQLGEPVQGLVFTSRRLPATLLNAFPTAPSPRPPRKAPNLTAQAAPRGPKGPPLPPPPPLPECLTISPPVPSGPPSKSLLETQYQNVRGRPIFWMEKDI
Assay type: biochemical
Description: FIG. 10: (A) IC50 values for inhibitors measured in an Nt-acetylation inhibitor assay for Naa80. (B) Ki-values for CoA-Ac-DDDI-NH2 (SEQ ID NO: 6) for different human NATs measured in an Nt-acetylation inhibitor assay. All reactions were performed at least three times and in triplicate; errors bars represent standard deviation of each measurement.
The IC50 values for these compounds were tested as described in Foyn H, et al. (2013) “Design, Synthesis, and Kinetic Characterization of Protein N-Terminal Acetyltransferase Inhibitors”. ACS Chem Biol 8:1121-1127; and Foyn H, et al. (2017) “DTNB-Based quantification of in vitro enzymatic N-terminal acetyltransferase activity”, Methods Mol. Biol. 1574:9-15. Briefly, a colorimetric acetylation assay, 5,5′-dithiobis-(2-nitrobenzoic acid) (DTNB) assay was used to measure the catalytic activity of NATs after incubation with NAT inhibitors. In the DTNB assay, thiols present in the enzymatic product, CoA, cleaves DTNB and produces 2-nitro-5-thiobenzoate (NTB-), which absorbs light with a wavelength of 412 nm. NTB- forms in a 1:1 molar ratio to the thiol groups present in the sample. Therefore, NTB- was quantified by measuring the absorbance at 412 nm and indirectly measures peptide Nt-acetylation. […] After 30 min-60 min incubation at 37° C., the enzyme activity was quenched with quenching buffer (3.2 M guanidinium-HCl, 100 mM sodium phosphate dibasic pH 6.8). Triplicates were run for all positive samples, while negative controls were duplicated. As a negative control, reactions without enzyme were incubated at 37° C. before the reaction was quenched and added enzyme. In order to measure CoA production, 2 mM DTNB (dissolved in 100 mM sodium phosphate dibasic pH 6.8 and 10 mM EDTA) was added to the quenched reaction and the absorbance at 412 nm was measured with a spectrophotometer (Epoc). Background absorbance (determined in negative controls) was subtracted from the absorbance determined in each individual reaction. Thiophenolate production was quantified assuming ε=13.7×103 M−1 cm−1. For NatA and NatB enzyme complex inhibition, immunoprecipitation was performed using Naa15 ab (custom made, Arnesen T, Anderson D, Baldersheim C, Lanotte M, Varhaug J E, Lillehaug J R. (2005) Identification and characterization of the human ARD1-NATH protein acetyltransferase complex. Biochemical J 386(Pt 3):433-43.) or Naa20 ab (Nat5, abnova) respectively and protein A/G magnetic agarose beads (Millipore). A similar Nt-acetylation reaction was performed as previously described and the enzymatic activity was quenched with a final concentration of 1% TFA and analyzed by HPLC (Evjenth R, Van Damme P, Gevaert K, Arnesen T (2013) HPLC-based Quantification of in vitro N-terminal Acetylation. Methods Mol Biol 981:95-102.).
We then pursued Naa80 bisubstrate analogue inhibitors based on the results of the substrate screening and the sequences of the cellular substrates processed β- and γ-actin. We synthesized bisubstrate conjugates of Coenzyme A coupled to the tetrapeptides MDEL-NH2 (SEQ ID NO: 8), DDDI-NH2 (SEQ ID NO: 6), EEEI-NH2 (SEQ
ID NO: 7), and MLGT-NH2 (SEQ ID NO: 52) via an acetamide (Ac) linker.
The following additional Naa80 bisubstrate analogue inhibitors were produced and tested as described above: […]

Q: For `CC(C)C[C@H](NC(=O)[C@H](CCC(=O)O)NC(=O)[C@H](CCC(=O)O)NC(=O)[C@H](CCC(=O)O)NC(=O)CSCCNC(=O)CCNC(=O)C(O)C(C)(C)COP(=O)(O)OP(=O)(O)OCC1OC(n2cnc3c(N)ncnc32)C(O)C1OP(=O)(O)O)C(N)=O` (stereo partly shown) [EEEL], which IC50 is on record?
A: 1.16 µM

Same assay, conditions: at the highest concentration tested of 1000 μM

Q: With CoA-Ac-MLGT-NH2 ({CoA-Ac′}-MLGT-NH2) as the compound, how does the “inhibition of Naa80” value read?
A: did not show detectable inhibition

Each compound was assayed against T1, Naa80 (assay: Naa80 substrate screening assay (peptide acetylation by purified Naa80)). Conditions: Naa80 mediated acetylation of 24-mer peptide substrates.
Assay type: biochemical
Excerpt: In order to investigate the in vitro activity of Naa80 further, an enzyme activity screening assay on purified Naa80 was undertaken using a broad substrate library (including amino acids, nucleosides, coenzymes, amines, saccharides, vitamins, antioxidants and peptides) modified from Kuhn et al. (Kuhn et al. (2013) “Broad-substrate screen as a tool to identify substrates for bacterial Gcn5-related N-acetyltransferases with unknown substrate specificity”. Protein Science 22(2):222-230). Among all of the potential substrates tested, only the peptides with N-terminal sequence of MDEL24 (SEQ ID NO: 45), DDDI24 (SEQ ID NO: 41) and EEEI24 (SEQ ID NO: 40) were acetylated, as shown in the following table:
The 24-mer substrate peptides differed in their 7 N-terminal amino acids while the 17 C-terminal residues (RWGRPVGRRRRPVRVYP, SEQ ID NO: 39) were kept constant: EEEI24 (EEEIAAL, SEQ ID NO: 40), DDDI24 (DDDIAAL, SEQ ID NO: 41), MDDD24 (MDDDIAA, SEQ ID NO: 42), SESS24 (SESSSKS, SEQ ID NO: 43), AVFA24 (AVFADLD, SEQ ID NO: 44), MDEL24 (MDELFPL, SEQ ID NO: 45), MELL24 (MELLSPP, SEQ ID NO: 46), MLGT24 (MLGTGPA, SEQ ID NO: 47), MTNK24 (MTNKSSL, SEQ ID NO: 48), MLGP24 (MLGPEGG, SEQ ID NO: 49), MAPL24 (MAPLDLD, SEQ ID NO: 50), MKKS24 (MKKSYSG, SEQ ID NO: 51).
Both MDEL (p65, SEQ ID NO: 8) and MDDD24 (unprocessed β-actin, SEQ ID NO: 42) represent cellular NatB substrates.

Q: For “MTNK24: 24-mer substrate peptide: N-terminal MTNKSSL (SEQ ID NO: 48) plus constant RWGRPVGRRRRPVRVYP (MTNKSSLRWGRPVGRRRRPVRVYP)”, which Product formation is on record?
A: −4.25 (±1.75) μM

Q: “MKKS24: 24-mer substrate peptide: N-terminal MKKSYSG (SEQ ID NO: 51) plus constant RWGRPVGRRRRPVRVYP (MKKSYSGRWGRPVGRRRRPVRVYP)” was tested. Which Product formation did it give?
A: 3.37 (±1.71) μM

Q: For “EEEI24: 24-mer substrate peptide: N-terminal EEEIAAL (SEQ ID NO: 40) plus constant RWGRPVGRRRRPVRVYP (EEEIAALRWGRPVGRRRRPVRVYP)”, which Product formation is on record?
A: 42.4 (±0.95) μM

Q: “MELL24: 24-mer substrate peptide: N-terminal MELLSPP (SEQ ID NO: 46) plus constant RWGRPVGRRRRPVRVYP (MELLSPPRWGRPVGRRRRPVRVYP)” was tested. Which Product formation did it give?
A: 2.15 (±0.40) μM

Q: Which Product formation does the source give for “SESS24: 24-mer substrate peptide: N-terminal SESSSKS (SEQ ID NO: 43) plus constant RWGRPVGRRRRPVRVYP (SESSSKSRWGRPVGRRRRPVRVYP)” here?
A: 1.14 (±3.35) μM

Q: Which Product formation does the source give for “MAPL24: 24-mer substrate peptide: N-terminal MAPLDLD (SEQ ID NO: 50) plus constant RWGRPVGRRRRPVRVYP (MAPLDLDRWGRPVGRRRRPVRVYP)” here?
A: 2.28 (±0.61) μM

Q: For “AVFA24: 24-mer substrate peptide: N-terminal AVFADLD (SEQ ID NO: 44) plus constant RWGRPVGRRRRPVRVYP (AVFADLDRWGRPVGRRRRPVRVYP)”, which Product formation is on record?
A: −0.96 (±0.84) μM

Q: “DDDI24: 24-mer substrate peptide: N-terminal DDDIAAL (SEQ ID NO: 41) plus constant RWGRPVGRRRRPVRVYP (DDDIAALRWGRPVGRRRRPVRVYP)” was tested. Which Product formation did it give?
A: 50.5 (±1.0) μM
